Source: IntAct's records for PubMed 16890161

B1: Low-density lipoprotein receptor-related protein 6 (Homo sapiens), O75581 (parent)
chain: MGAVLRSLLACSFCVLLRAAPLLLYANRRDLRLVDATNGKENATIVVGGLEDAAAVDFVFSHGLIYWSDVSEEAIKRTEFNKTESVQNVVVSGLLSPDGLACDWLGEKLYWTDSETNRIEVSNLDGSLRKVLFWQELDQPRAIALDPSSGFMYWTDWGEVPKIERAGMDGSSRFIIINSEIYWPNGLTLDYEEQKLYWADAKLNFIHKSNLDGTNRQAVVKGSLPHPFALTLFEDILYWTDWSTHSILACNKYTGEGLREIHSDIFSPMDIHAFSQQRQPNATNPCGIDNGGCSHLCLMSPVKPFYQCACPTGVKLLENGKTCKDGATELLLLARRTDLRRISLDTPDFTDIVLQLEDIRHAIAIDYDPVEGYIYWTDDEVRAIRRSFIDGSGSQFVVTAQIAHPDGIAVDWVARNLYWTDTGTDRIEVTRLNGTMRKILISEDLEEPRAIVLDPMVGYMYWTDWGEIPKIERAALDGSDRVVLVNTSLGWPNGLALDYDEGKIYWGDAKTDKIEVMNTDGTGRRVLVEDKIPHIFGFTLLGDYVYWTDWQRRSIERVHKRSAEREVIIDQLPDLMGLKATNVHRVIGSNPCAEENGGCSHLCLYRPQGLRCACPIGFELISDMKTCIVPEAFLLFSRRADIRRISLETNNNNVAIPLTGVKEASALDFDVTDNRIYWTDISLKTISRAFMNGSALEHVVEFGLDYPEGMAVDWLGKNLYWADTGTNRIEVSKLDGQHRQVLVWKDLDSPRALALDPAEGFMYWTEWGGKPKIDRAAMDGSERTTLVPNVGRANGLTIDYAKRRLYWTDLDTNLIESSNMLGLNREVIADDLPHPFGLTQYQDYIYWTDWSRRSIERANKTSGQNRTIIQGHLDYVMDILVFHSSRQSGWNECASSNGHCSHLCLAVPVGGFVCGCPAHYSLNADNRTCSAPTTFLLFSQKSAINRMVIDEQQSPDIILPIHSLRNVRAIDYDPLDKQLYWIDSRQNMIRKAQEDGSQGFTVVVSSVPSQNLEIQPYDLSIDIYSRYIYWTCEATNVINVTRLDGRSVGVVLKGEQDRPRAVVVNPEKGYMYFTNLQERSPKIERAALDGTEREVLFFSGLSKPIALALDSRLGKLFWADSDLRRIESSDLSGANRIVLEDSNILQPVGLTVFENWLYWIDKQQQMIEKIDMTGREGRTKVQARIAQLSDIHAVKELNLQEYRQHPCAQDNGGCSHICLVKGDGTTRCSCPMHLVLLQDELSCGEPPTCSPQQFTCFTGEIDCIPVAWRCDGFTECEDHSDELNCPVCSESQFQCASGQCIDGALRCNGDANCQDKSDEKNCEVLCLIDQFRCANGQCIGKHKKCDHNVDCSDKSDELDCYPTEEPAPQATNTVGSVIGVIVTIFVSGTVYFICQRMLCPRMKGDGETMTNDYVVHGPASVPLGYVPHPSSLSGSLPGMSRGKSMISSLSIMGGSSGPPYDRAHVTGASSSSSSSTKGTYFPAILNPPPSPATERSHYTMEFGYSSNSPSTHRSYSYRPYSYRHFAPPTTPCSTDVCDSDYAPSRRMTSVATAKGYTSDLNYDSEPVPPPPTPRSQYLSAEENYESCPPSPYTERSYSHHLYPPPPSPCTDSS

Variants of: B1
Details: with axin1_rat Axin1, O70239
Sequence of axin1_rat Axin1, O70239 (O70239 whole entry): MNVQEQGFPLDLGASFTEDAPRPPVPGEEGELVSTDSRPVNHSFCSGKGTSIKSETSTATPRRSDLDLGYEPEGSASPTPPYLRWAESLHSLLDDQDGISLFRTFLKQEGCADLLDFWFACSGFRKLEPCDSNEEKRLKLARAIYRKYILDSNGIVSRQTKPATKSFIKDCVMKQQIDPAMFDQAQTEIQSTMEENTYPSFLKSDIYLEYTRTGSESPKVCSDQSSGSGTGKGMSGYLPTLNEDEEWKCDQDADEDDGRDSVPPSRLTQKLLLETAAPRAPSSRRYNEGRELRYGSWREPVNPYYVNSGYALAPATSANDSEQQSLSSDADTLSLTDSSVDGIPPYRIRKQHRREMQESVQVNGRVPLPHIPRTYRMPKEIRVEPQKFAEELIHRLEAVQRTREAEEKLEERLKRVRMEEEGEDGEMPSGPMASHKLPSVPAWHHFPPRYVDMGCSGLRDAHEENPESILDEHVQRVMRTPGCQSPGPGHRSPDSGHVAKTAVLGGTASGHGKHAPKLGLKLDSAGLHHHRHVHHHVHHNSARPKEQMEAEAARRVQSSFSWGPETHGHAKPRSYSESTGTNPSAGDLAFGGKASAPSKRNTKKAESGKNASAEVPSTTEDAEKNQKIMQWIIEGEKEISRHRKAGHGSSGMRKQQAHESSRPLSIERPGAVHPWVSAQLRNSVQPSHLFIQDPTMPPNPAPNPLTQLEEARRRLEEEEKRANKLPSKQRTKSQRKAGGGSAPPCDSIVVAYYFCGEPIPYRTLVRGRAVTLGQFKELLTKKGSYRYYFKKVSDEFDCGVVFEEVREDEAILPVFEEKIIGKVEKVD

Variant	effect of a mutation on the interaction
S1490A	decreasing interaction
